From patent publication US20100298539A1 (ALLIGATOR BIOSCIENCE, published 2010)

B1: human C5a receptor (C5aR) (receptor)
chain: MDSFNYTTPDYGHYDDKDTLDLNTPVDKTSNTLRVPDILALVIFAVVFLVGVLGNALVVWVTAFEAKRTINAIWFLNLAVADFLSCLALPILFTSIVQHHHWPFGGAACSILPSLILLNMYASILLLATISADRFLLVFKPIWCQNFRGAGLAWIACAVAWGLALLLTIPSFLYRVVREEYFPPKVLCGVDYSHDKRRERAVAIVRLVLGFLWPLLTLTICYTFILLRTWSRRATRSTKTLKVVVAVVASFFIFWLPYQVTGIMMSFLEPSSPTFLLLKKLDSLCVSFAYINCCINPIIYVVAGQGFQGRLRKSLPSLLRNVLTEESVVRESKSFTRSTVDTMAQKTQAV
notes: whole, on cells; also called CD88; U937/C5aR cells
B2: human formylated peptide receptor (FPR) (receptor)
chain: METNSSLPTNISGGTPAVSAGYLFLDIITYLVFAVTFVLGVLGNGLVIWVAGFRMTHTVTTISYLNLAVADFCFTSTLPFFMVRKAMGGHWPFGWFLCKFVFTIVDINLFGSVFLIALIALDRCVCVLHPVWTQNHRTVSLAKKVIIGPWVMALLLTLPVIIRVTTVPGKTGTVACTFNFSPWTNDPKERINVAVAMLTVRGIIRFIIGFSAPMSIVAVSYGLIATKIHKQGLIKSSRPLRVLSFVAAAFFLCWSPYQVVALIATVRIRELLQGMYKEIGIAVDVTSALAFFNSCLNPMLYVFMGQDFRERLIHALPASLERALTEDSTQTSDTATNSTLPSAEVELQAK
notes: whole, on cells; also called formyl-peptide-receptor

Tests used:
[1] = molecular target: T1, Chemotaxis Inhibitory Protein of Staphylococcus aureus (CHIPS), wildtype, amino acids 1-121 (Staphylococcus aureus, UniProt A6QIG7 29-149); test: competition: CHIPS given iv (0.1 mg/kg) against the binding of FITC labelled anti-CD88 mAb to C5aR on gated blood neutrophils, flow cytometry [B) (cont.]
[2] = molecular target: T1, Chemotaxis Inhibitory Protein of …; test: competition: CHIPS given iv (0.1 mg/kg) against the binding of FITC-fMLP to FPR on gated blood neutrophils, flow cytometry [A) (cont.]

Binder | binding result [1] | binding result [2]
B1 | binds | –
B2 | – | binds
